This note sets out measurements from article PMC10998593.

This series has as its target GST-NSUN5 (UniProt Q96P11 1-429). Nature of the series: EMSA. (In EMSA bound probe runs differently from free probe, usually more slowly.)

Sequence of GST-NSUN5 (Q96P11 whole entry): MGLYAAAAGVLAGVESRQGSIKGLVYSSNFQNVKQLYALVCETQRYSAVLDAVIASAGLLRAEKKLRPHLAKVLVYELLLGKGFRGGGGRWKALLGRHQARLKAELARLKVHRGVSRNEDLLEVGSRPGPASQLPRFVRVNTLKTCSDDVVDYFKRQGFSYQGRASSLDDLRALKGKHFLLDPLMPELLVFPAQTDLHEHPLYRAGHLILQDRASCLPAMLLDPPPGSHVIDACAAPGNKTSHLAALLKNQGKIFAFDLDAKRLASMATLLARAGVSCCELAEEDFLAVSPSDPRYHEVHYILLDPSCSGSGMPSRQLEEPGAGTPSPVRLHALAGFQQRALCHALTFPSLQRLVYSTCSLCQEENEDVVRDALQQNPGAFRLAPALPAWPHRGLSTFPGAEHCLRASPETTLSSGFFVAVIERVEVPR

B1: Probe1 (Oligo 1), CTNNB1 (ssRNA)
RNA: GUCCUUCGGGCUGGUGACAGGG
Regarding B1, the binding result is on record as “binds”.
